For one experiment, the target named is T1, biotin-labeled mouse ADM (mouse, not fully specified; biotin label (named mouse ADM-C-biotin in Example 1.4; position of the biotin not stated for the other lots)).
T1 construct: Synthetic peptide; also called mouse ADM-C-biotin; mADM-Biotin
T1 peptide: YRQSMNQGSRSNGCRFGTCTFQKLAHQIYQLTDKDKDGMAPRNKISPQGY
The experiment in a line: BLI (Octet RED96e), biotinylated antigen on streptavidin sensor, antibody 100 nM, 1:1 fit. On the procedure: (§1) The affinity of the candidate antibody for biotin-labeled human ADM (human ADM-C-biotin for short, the sequence of human ADM is set forth in SEQ ID NO: 4) and mouse ADM (mouse ADM-C-biotin for short, the sequence of mouse ADM is set forth in SEQ ID NO: 5) was determined by adopting Octet RED96e (Fortebio). The antigens and antibody were all diluted with 1× PBST, the concentration of the antigen used was 2 μg/mL, and the working concentration of the antibody used was 100 nM.
(§2) First, the sample was added to a 96-well plate (Greiner bio-one, 655209) with a system of 200 μL/well. Software parameters were then set, the plate temperature was set to 30° C., and the standard kinetic signal was collected at a frequency of 5.0 HZ. Next, a streptavidin sensor (Fortébio, Cat. No. 18-5020) was pre-wetted with 1× PBST for 10 min and then tested on a machine. Each cycle included the following steps: 1) immersing the sensor in a buffer for 180 s to stabilize the baseline; 2) immobilizing the antigen for 10 s, allowing the antigen to bind to the sensor, and controlling the binding amount of the antigen between 0.5 nm and 1.0 nm; 3) immersing the sensor in the buffer for 180 s; 4) binding the antigen to the antibody for the binding time of 180 s; and 5) dissociating the antigen and the antibody for 10 min.
(§3) The equilibrium dissociation constant (KD) of the antibody was calculated by measuring the association rate (Kon) and the dissociation rate (Koff) of the antigen-antibody in a 1:1 binding manner by adopting the Data Analysis 12.0 software from Fortebio.

Experiment [1] deals with T2, biotin-labeled human ADM (human, not fully specified; biotin label (named human ADM-C-biotin in Example 1.4; position of the biotin not stated for the other lots)).
T2 construct: Synthetic peptide; also called human ADM-C-biotin; hADM-Biotin
T2 peptide: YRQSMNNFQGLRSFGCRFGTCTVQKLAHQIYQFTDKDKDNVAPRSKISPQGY
The description is as above. As for the experimental part:
as §1, §2, §3

In experiment [2] the target is T3, 19 amino acid polypeptide at the N-terminus of mouse ADM (mouse).
T3 construct: Coated on the ELISA plate in the hybridoma screening; also called YY-19
T3 peptide: YRQSMNQGSRSNGCRFGTC
The experiment in a line: ELISA, peptide coated at 1.0 ug/mL, hybridoma supernatant. As for the experimental part: (§4) YY-21 or YY-19 was diluted with PBS to 1.0 μg/mL, added to a 96-well plate (Corning, 9018), with 100 μL/well, and incubated at 4° C. overnight for coating. The ELISA plate was washed 3 times with a washing buffer (PBS+0.05% Tween 20) on an automatic plate washer the next day. 300 μL of a blocking buffer (PBS+0.05% Tween 20+1% BSA) was added to each well, and the plate was placed at room temperature for 1 h for blocking. The plate was then washed 3 times with the washing buffer on the automatic plate washer, and the hybridoma supernatant was added to each well of the ELISA plate. The plate was placed and incubated at room temperature for 1 h, and then washed 3 times according to the method described above. Goat Anti-mouse IgG Fc-HRP (Sigma, A0168) or Goat Anti-rat-IgG-HRP (Sigma, A5795) was diluted in 1:5000 with the blocking buffer, with 100 μL/well. The plate was placed and incubated at room temperature for 1 h. The plate was then washed 3 times according to the method described above. A TMB substrate solution was added with 100 μL/well and incubated at room temperature for 10 min, then 50 μL of 1.0 M hydrochloric acid was added to each well to terminate the reaction, and the plate was read by a microplate reader at OD₄₅₀ nm. […]
(An ELISA detects its analyte on a solid surface through an enzyme-linked reagent.)

The target in experiment [3] is T4, 21 amino acid polypeptide at the N-terminus of human ADM (human).
T4 construct: Coated on the ELISA plate in the hybridoma screening; also called YY-21
T4 peptide: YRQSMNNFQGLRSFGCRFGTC
The description is as above. On the procedure:
as §4

The target of experiment [4] is T2, biotin-labeled human ADM. The experiment in a line: ELISA of E. coli culture supernatant of phage library monoclones.

B1: hybridoma clone 40E12 (antibody, V domains shown)
VH: QIQLVQSGPELRKPGETVKISCKASGYAFTTFGMSWIKQAPGQGLKWMGWINTYSRVPKYTDDFKGRFAFSLEISATTAYLLINNLKNGDTATYFCARGYGGEGGLGFSGQGTTLTVSS
VL: DVLMTQTPFSLPVSLGDQASISCRSSQSIIDSDGNTYLEWYLQKPGQSPKLLIYKVSNRFSGVPDRFSGSGSGTDFTLRISRVEAEDLGVYYCFQGSHFPYTFAGGTKLELK
notes: Murine hybridoma antibody purified on protein A; also called candidate antibody 40E12
Usually Kd stands for the constant that tells how readily two partners part at equilibrium. A lower Kd goes with a tighter complex. In general, koff refers to a measure of how fast the partners let go of each other. Low readings indicate a long-lived complex, high ones a short-lived complex. By kon is commonly meant the second-order rate constant of association. A low value points to slow association. In the experiment with biotin-labeled mouse ADM, B1 gave a Kd of 0.236 nM, a koff of 8.9e-05 s⁻¹ and a kon of 377000 M⁻¹ s⁻¹. Moreover, in the experiment with biotin-labeled human ADM [1], binding was characterised by a dissociation constant (Kd) of 0.314 nM, the koff amounted to 0.000109 s⁻¹ and the kon stood at 347000 M⁻¹ s⁻¹. Further, in experiment [2], the binding result is recorded as “binds”. In addition, in experiment [3], the binding result was “binds”.

B2: monoclone 1F12 (from the fully human single-chain phage antibody library) (scFv, V domains shown)
VH: QVQLVQSGAEVKKPGASVKVSCKASGYTFTSYGISWVRQAPGQGLEWMGWISAYNGNTNYAQKLQGRVTMTRDTSTSTAYMELRSLRSDDTAVYYCAREGRSGGSFDIWGQGTMVTVSS
VL: DIQMTQSPSSLSASVGDRVTITCRASQGISSYLAWYQQKPGKAPKLLIYDASNLETGVPSRFSGSGSGTDFTFTISSLQPEDIATYYCQQYDNLPLTFGGGTKVEIK
notes: Tested as E. coli culture supernatant of a clone of a single-chain library
B2: the binding result with biotin-labeled human ADM [4] is reported as “binds”.

For the origin of these results see patent US20260035456A1 (SHANGHAI JEYOU PHARMACEUTICAL, published 2026).
